Reference: publication PMC13147308

Tests used:
[1] = target: SauCas9 WED-PI domain construct, His-tagged (Staphylococcus aureus); assay: ITC; AcrIIA13b mutants E31K and E39K with SauCas9 and WED-PI (Fig. S7); buffer not told for this experiment
[2] = target: Staphylococcus haemolyticus AcrIIA13b, wild type, with C-terminal 6xHis tag (Staphylococcus haemolyticus); assay: SEC-MALS; Superdex 200 Increase 10/300 GL, 20 mM Tris/HCl pH 8.0, 150 mM NaCl, 20 °C, 0.5 mL/min; SEC profiles and MALS of wild type and mutants; monomer and dimer peaks coexist
[3] = target: SauCas9 PI (PAM-interacting) domain, His-tagged (Staphylococcus aureus); assay: ITC; PBS pH 7.4, 20 °C; AcrIIA13b (500 μM) injected into the target protein (50 μM) in the cell, 25 injections; single-site model
[4] = target: Staphylococcus aureus Cas9, full length, His-tagged (Staphylococcus aureus) (UniProt J7RUA5); assay: as above
[5] = target: Staphylococcus aureus Cas9, full length, His-tagged (UniProt J7RUA5); assay: SEC co-migration followed by SDS/PAGE band quantification; conditions: fraction eluted around 12 mL in SEC; n = 3; parent: est. 100; read off a plot

Substance | percent of parent [5] [%] | other results
AcrIIA13b E39K mutant (natural protein) |  | Kd [1]: 1310 nM
Staphylococcus haemolyticus AcrIIA13b, wild type, with C-terminal 6xHis tag (natural protein) |  | stoichiometry N [2]: 2; Kd [3]: 970 nM; Kd [4]: 4.47 µM
Staphylococcus haemolyticus AcrIIA13b, wild type, with C-terminal 6xHis tag E21K | 75 | 
Staphylococcus haemolyticus AcrIIA13b, wild type, with C-terminal 6xHis tag E31K | 13 | 
Staphylococcus haemolyticus AcrIIA13b, wild type, with C-terminal 6xHis tag E39K | 35 | 
Staphylococcus haemolyticus AcrIIA13b, wild type, with C-terminal 6xHis tag E89W | 84 | 
Staphylococcus haemolyticus AcrIIA13b, wild type, with C-terminal 6xHis tag E94W | 87 | 
Staphylococcus haemolyticus AcrIIA13b, wild type, with C-terminal 6xHis tag Q25W | 46 | 
Staphylococcus haemolyticus AcrIIA13b, wild type, with C-terminal 6xHis tag Q87W | 75 | 
